Patent publication US9731011B2, “Combination tumor treatment with drug-loaded, bispecific ligand-targeted minicells and interferon-gamma” (EnGeneIC Molecular Delivery Pty Ltd, priority 2013, dated 2017)

What was measured:
Type in all cases: in vivo, athymic nude mice
[1] = tested on: human alveolar adenocarcinoma tumor xenografts (A549); experiment: Human alveolar adenocarcinoma (A549) xenograft, tumors ~285 mm^3 (Example 2); conditions: start ~285 mm^3; i.v.; 1×10^9 minicells per dose; IFN-gamma 0.5×10^4 IU per dose; by day 43, six doses
From the text: As described above, minicells were produced from an S. typhimurium minCDE-mutant strain and were purified using a gradient centrifugation/filamentation/filtration/endotoxin removal procedure previously described in MacDiarmid et al. (2007). The purified minicells were packaged with chemotherapeutic drug doxorubicin, also per MacDiarmid et al. (2007).
The bispecific antibody (BsAb) was a single polypeptide containing binding specificity respectively for S. typhimurium O-polysaccharide, present on minicells, and for human EGFR, overexpressed on alveolar adenocarcinoma cells. The O-polysaccharide specificity was derived from a mouse monoclonal antibody, for which the variable regions were isolated from a hybridoma cell line and presented as a single-chain variable fragment (scFv). The hybridoma cell line was prepared by immunizing mice with purified LPS and fusing the lymphocytes with tumor cells. Subsequently, the clones were screened for an antibody capable of binding the O-polysaccharide. The EGFR specificity, also presented as an scFv, was derived from the commercial antibody Erbitux® (Bristol Myers Squibb, USA). […]
The resulting tumors were measured twice a week, using an electronic digital caliper (Mitutoyo, Japan, with a measure accuracy of +/−0.001 inch), and mean tumor volume was calculated using the formula length (mm)×width (mm^2)×0.5=volume (mm^3). […]

[2] = tested on: human breast tumor xenografts (MDA-MB-468); experiment: Human breast cancer (MDA-MB-468) xenograft, large tumors ~250 mm^3 (Example 4); conditions: start ~250 mm^3; i.v.; 1×10^9 minicells per dose; IFN-gamma 0.5×10^4 IU per dose; by day 28, 3 doses
Method: (§1) As described above, minicells were purified, packaged with doxorubicin and targeted using single chain bispecific antibody with anti-O-polysaccharide and anti-EGFR specificities. Human breast cancer cells (MDA-MB-468) were established as xenografts in nu/nu mice, and tumor volumes were measured, also as described above.
The treatments were begun when the tumors reached a mean of ˜250 mm^3. As above, mice were randomized to four different groups of seven mice per group. The i.v. administration and minicell doses were as above, too.
The experiment was designed as follows. Group 1 (control) received sterile physiological saline only. Group 2 (control) received IFN-gamma (0.5×10^4 IU) per dose.

[3] = tested on: human breast tumor xenografts (MDA-MB-468); experiment: Human breast cancer (MDA-MB-468) xenograft, moderate tumors ~145 mm^3 (Example 3); conditions: start ~145 mm^3; i.v.; 1×10^9 minicells per dose; IFN-gamma 0.5×10^4 IU per dose; by day 30, six doses
Method: as §1, with “doxorubicin,” for “doxorubicin”, “Additionally, human” for “Human”, “(MDA-MB-468; ATCC)” for “(MDA-MB-468)”, “described.” for “described above.”
The treatments commenced when the tumors reached a mean of ˜145 mm^3, and mice were randomized to four different groups of seven mice per group. All treatments were administered i.v. in a total volume of 100 μl. All minicell doses contained 1×10^9 minicells of the respective type.
The experiment was designed as follows: Group 1 (control) received sterile physiological saline only. Group 2 (control) received IFN-gamma (0.5×10^4 IU) per dose.

Measured: anti-tumor effect (tumor volume)

B1: IFN-gamma: interferon-gamma protein; given i.v. to mice, or endogenous serum level in dogs (protein, UniProt P01580 23-155, looked up)
Interferon gamma: HGTVIESLESLNNYFNSSGIDVEEKSLFLDIWRNWQKDGDMKILQSQIISFYLRLFEVLKDNQAISNNISVIESHLITTFFSNSKAKKDAFMSIAKFEVNNPQVQRQAFNELIRVVHQLLPESSLRKRKRSRC
no anti-tumor efficacy: [1] | [2] | [3]
